Measurements published in PMC4915132, “Structural insights of ZIP4 extracellular domain critical for optimal zinc transport” (Nature Communications, 2016).

Key:
[1] = molecular target: extracellular domain of ZIP14 from Pteropus alecto (Pteropus alecto); experiment: SEC; purified protein on a size exclusion column; elution volume compared with standard proteins eluted on the same column
[2] = molecular target: pZIP14-ECD C147S mutant (Pteropus alecto); experiment: as above
[3] = molecular target: the molecule itself; experiment: as above
[4] = molecular target: the molecule itself; experiment: cross-linking; disulfide through an engineered cysteine; full-length hZIP4-HA transiently expressed in HEK293T cells; 4-20% gradient SDS-PAGE with or without 5% β-mercaptoethanol, western blot with anti-HA

“extracellular domain of ZIP14 from Pteropus alecto (from UniProt A5D7L5 61-174) (domain or fragment)” was tested, and the stoichiometry N [1] was 2.

“pZIP14-ECD C147S mutant (from UniProt A5D7L5 61-174) (domain or fragment)” showed a stoichiometry N [2] of 2.

B1: ZIP4 extracellular domain from Pteropus alecto (black fruit bat) (domain or fragment, UniProt L5KLU7 36-322, looked up)
chain: SGQGALDRVALGGLLNTLAARVHCTSGPCGKCLSVDDLLALGRPEEPGHLARLSAAAALYLSDPEGTCEDIRAGRWASRADHLLALLEGPKALAPGLSRLLQRIQAQTTGQPSAGEACVDPPQLLREAGVAGAPGSPGPVLATLLEHVGRGSCFHTLPTPQYFVDFVFQQSHGNTPNISVAELAALMQRLGVGGVTETHSDHHHQEKRVNRQGPTPLTAPNSSSDTWDTVCLSARDVMAVYGLSEQTGVTPEAWAQLSPALLQQQLSGACSPQPSHPAQNQLSQAEK
notes: Zinc transporter ZIP4 (SLC39A4) of Pteropus alecto, GenBank ELK11751, residues 36-322 (extracellular domain: HRD 36-191 and PCD 192-322); A selenomethionine-substituted form was also crystallised for phasing; Four intramolecular disulfide bonds (C59-C64, C67-C103, C153-C188, C266-C305); also called pZIP4-ECD; ZIP4-ECD; source: E. coli Origami B(DE3) pLysS, purified (Ni-NTA, Mono-Q, SEC); not …
With B1 the “stoichiometry N” value [3] was 2.

B2: full-length human ZIP4 S297C mutant with C-terminal HA tag (natural protein, UniProt Q6P5W5-1 23-647, looked up)
chain: SPPAGLLSLLTSGQGALDQEALGGLLNTLADRVHCANGPCGKCLSVEDALGLGEPEGSGLPPGPVLEARYVARLSAAAVLYLSNPEGTCEDARAGLWASHADHLLALLESPKALTPGLSWLLQRMQARAAGQTPKMACVDIPQLLEEAVGAGAPGSAGGVLAALLDHVRSGSCFHALPSPQYFVDFVFQQHSSEVPMTLAELSALMQRLGVGREAHSDHSHRHRGASSRDPVPLISSSNSSSVWDTVCLSARDVMAAYGLSEQAGVTPEAWAQLCPALLQQQLSGACTSQSRPPVQDQLSQSERYLYGSLATLLICLCAVFGLLLLTCTGCRGVTHYILQTFLSLAVGAVTGDAVLHLTPKVLGLHTHSEEGLSPQPTWRLLAMLAGLYAFFLFENLFNLLLPRDPEDLEDGPCGHSSHSHGGHSHGVSLQLAPSELRQPKPPHEGSRADLVAEESPELLNPEPRRLSPELRLLPYMITLGDAVHNFADGLAVGAAFASSWKTGLATSLAVFCHELPHELGDFAALLHAGLSVRQALLLNLASALTAFAGLYVALAVGVSEESEAWILAVATGLFLYVALCDMLPAMLKVRDPRPWLLFLLHNVGLLGGWTVLLLLSLYEDDITF
notes: Human zinc transporter ZIP4 (SLC39A4), GenBank BC062625, with S297C (S297 is equivalent to S293 in pZIP4); Intermolecular disulfide C297-C297* in the dimer; also called S297C mutant ZIP4; source: HEK293T, transiently transfected, in lysate; not shown: HA, C-terminal, kept
With B2 the “stoichiometry N” value [4] was 2.
